According to publication PMC4419694:

Tests used:
Assay in all cases: AUC
SSBΔ120-166 (E. coli) = molecular target: SSBΔ120-166 (E. coli)
SSBΔ130-166 (E. coli) = molecular target: SSBΔ130-166 (E. coli)
SSBΔ151-166 (E. coli) = molecular target: SSBΔ151-166 (E. coli)
SSBΔC8 (E. coli) = molecular target: SSBΔC8 (E. coli)

Work on SSBΔ120-166 (natural protein) yielded a stoichiometry N (SSBΔ120-166 (E. coli)) of 4.
SSBΔ130-166 (natural protein) showed a stoichiometry N (SSBΔ130-166 (E. coli)) of 4.
SSBΔ151-166 (natural protein) gave a stoichiometry N (SSBΔ151-166 (E. coli)) of 4.
With SSBΔC8 (domain or fragment) the stoichiometry N (SSBΔC8 (E. coli)) was 4.
